Test results taken from paper PMC10397247.
One block for each binder: values may come before it.

Legend:
4H570-bN = target: T1, 4H570-bN; assay: two-hybrid library CCNG1;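 also: natural log of median RNA to DNA barcode read ratio; higher means stronger binding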
T1 chain: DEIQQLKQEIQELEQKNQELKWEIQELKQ

4H906-bN = target: T2, 4H906-bN; assay: two-hybrid library CCNG1;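 also: natural log of median RNA to DNA barcode read ratio; higher means stronger binding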
T2 chain: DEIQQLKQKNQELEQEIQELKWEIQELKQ

4H619-bN = target: T3, 4H619-bN; assay: two-hybrid library CCNG1;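 also: natural log of median RNA to DNA barcode read ratio; higher means stronger binding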
T3 chain: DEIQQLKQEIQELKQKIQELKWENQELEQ

4H850-bN = target: T4, 4H850-bN; assay: two-hybrid library CCNG1;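 also: natural log of median RNA to DNA barcode read ratio; higher means stronger binding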
T4 chain: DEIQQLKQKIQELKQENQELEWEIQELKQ

4H3631-bN = target: T5, 4H3631-bN; assay: two-hybrid library CCNG1;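 also: natural log of median RNA to DNA barcode read ratio; higher means stronger binding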
T5 chain: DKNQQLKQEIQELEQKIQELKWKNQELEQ

4H3638-bN = target: T6, 4H3638-bN; assay: two-hybrid library CCNG1;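 also: natural log of median RNA to DNA barcode read ratio; higher means stronger binding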
T6 chain: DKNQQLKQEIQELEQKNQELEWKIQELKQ

4H3414-bN = target: T7, 4H3414-bN; assay: two-hybrid library CCNG1
T7 chain: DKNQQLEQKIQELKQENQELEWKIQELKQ

4H3172-bN = target: T8, 4H3172-bN; assay: two-hybrid library CCNG1
T8 chain: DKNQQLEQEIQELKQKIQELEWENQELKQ

4H584-bN = target: T9, 4H584-bN; assay: two-hybrid library CCNG1
T9 chain: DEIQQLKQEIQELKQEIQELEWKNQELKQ

4H3974-bN = target: T10, 4H3974-bN; assay: two-hybrid library CCNG1
T10 chain: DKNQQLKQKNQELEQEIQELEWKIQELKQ

4H3817-bN = target: T11, 4H3817-bN; assay: two-hybrid library CCNG1
T11 chain: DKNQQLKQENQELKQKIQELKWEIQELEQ

4H2839-bA = target: T12, 4H2839-bA; assay: two-hybrid library CCNG1
T12 chain: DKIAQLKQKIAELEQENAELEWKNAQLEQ

4H3298-bA = target: T13, 4H3298-bA; assay: two-hybrid library CCNG1
T13 chain: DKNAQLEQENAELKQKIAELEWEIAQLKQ

4H3277-bA = target: T14, 4H3277-bA; assay: two-hybrid library CCNG1
T14 chain: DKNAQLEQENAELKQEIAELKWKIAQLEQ

4H2859-bH = target: T15, 4H2859-bH; assay: two-hybrid library CCNG1
T15 chain: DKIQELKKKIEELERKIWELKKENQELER

4H40-bA = target: T16, 4H40-bA; assay: two-hybrid library CCNG1
T16 chain: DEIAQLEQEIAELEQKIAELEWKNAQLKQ

4H492-bA = target: T17, 4H492-bA; assay: two-hybrid library CCNG1
T17 chain: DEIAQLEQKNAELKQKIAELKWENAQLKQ

4H2692-bA = target: T18, 4H2692-bA; assay: two-hybrid library CCNG1
T18 chain: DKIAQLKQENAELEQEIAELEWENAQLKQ

4H3057-bA = target: T19, 4H3057-bA; assay: two-hybrid library CCNG1
T19 chain: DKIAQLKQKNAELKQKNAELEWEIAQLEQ

O6-bP = target: T20, O6-bP; assay: two-hybrid library CCNG1
T20 chain: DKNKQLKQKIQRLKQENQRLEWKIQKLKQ

4H319-bN = target: T21, 4H319-bN; assay: two-hybrid library CCNG1
T21 chain: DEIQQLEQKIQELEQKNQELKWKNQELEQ

4H2717-bA = target: T22, 4H2717-bA; assay: two-hybrid library CCNG1
T22 chain: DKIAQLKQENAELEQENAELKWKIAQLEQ

4H741-bA = target: T23, 4H741-bA; assay: two-hybrid library CCNG1
T23 chain: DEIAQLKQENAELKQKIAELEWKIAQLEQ

4H2915-bA = target: T24, 4H2915-bA; assay: two-hybrid library CCNG1
T24 chain: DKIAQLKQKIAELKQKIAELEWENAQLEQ

4H319-bA = target: T25, 4H319-bA; assay: two-hybrid library CCNG1
T25 chain: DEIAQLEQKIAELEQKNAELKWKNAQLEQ

4H477-bA = target: T26, 4H477-bA; assay: two-hybrid library CCNG1
T26 chain: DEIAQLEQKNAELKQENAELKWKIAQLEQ

4H348-bA = target: T27, 4H348-bA; assay: two-hybrid library CCNG1
T27 chain: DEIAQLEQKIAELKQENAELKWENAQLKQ

4H3298-bN = target: T28, 4H3298-bN; assay: two-hybrid library CCNG1
T28 chain: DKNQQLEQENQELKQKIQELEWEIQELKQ

4H3628-bN = target: T29, 4H3628-bN; assay: two-hybrid library CCNG1
T29 chain: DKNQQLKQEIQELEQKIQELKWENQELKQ

4H3613-bN = target: T30, 4H3613-bN; assay: two-hybrid library CCNG1
T30 chain: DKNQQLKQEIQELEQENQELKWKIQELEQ

4H3462-bN = target: T31, 4H3462-bN; assay: two-hybrid library CCNG1
T31 chain: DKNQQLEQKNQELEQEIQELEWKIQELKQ

4H626-bN = target: T32, 4H626-bN; assay: two-hybrid library CCNG1
T32 chain: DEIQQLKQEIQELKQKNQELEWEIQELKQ

4H3926-bN = target: T33, 4H3926-bN; assay: two-hybrid library CCNG1
T33 chain: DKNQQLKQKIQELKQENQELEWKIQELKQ

4H3497-bN = target: T34, 4H3497-bN; assay: two-hybrid library CCNG1
T34 chain: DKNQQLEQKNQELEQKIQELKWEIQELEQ

4H591-bN = target: T35, 4H591-bN; assay: two-hybrid library CCNG1
T35 chain: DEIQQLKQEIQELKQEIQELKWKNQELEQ

P2-AA-1HAA-D = target: T36, P2-AA-1HAA-D; assay: two-hybrid library CCmax; conditions: mean of both orientations
T36 chain: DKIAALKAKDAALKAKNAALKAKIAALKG

P2-AA-1HAA-V = target: T37, P2-AA-1HAA-V; assay: two-hybrid library CCmax; conditions: mean of both orientations
T37 chain: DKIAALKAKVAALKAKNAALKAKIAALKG

P2-AA-1HAA-T = target: T38, P2-AA-1HAA-T; assay: two-hybrid library CCmax; conditions: mean of both orientations
T38 chain: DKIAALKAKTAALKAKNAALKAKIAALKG

P2-AA-1HAA-I = target: T39, P2-AA-1HAA-I; assay: two-hybrid library CCmax; conditions: mean of both orientations
T39 chain: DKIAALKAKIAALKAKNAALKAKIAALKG

P2-AA = target: T40, P2-AA; assay: two-hybrid library CCmax; conditions: mean of both orientations
T40 chain: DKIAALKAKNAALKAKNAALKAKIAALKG

P2-AA-1HAA-E = target: T41, P2-AA-1HAA-E; assay: two-hybrid library CCmax; conditions: mean of both orientations
T41 chain: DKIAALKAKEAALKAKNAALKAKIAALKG

4H3297-bA = target: T42, 4H3297-bA; assay: two-hybrid library CCNG1
T42 chain: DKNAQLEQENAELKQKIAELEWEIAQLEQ

4H967-bN = target: T43, 4H967-bN; assay: two-hybrid library CCNG1
T43 chain: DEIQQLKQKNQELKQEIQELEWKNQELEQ

4H56-bA = target: T44, 4H56-bA; assay: two-hybrid library CCNG1
T44 chain: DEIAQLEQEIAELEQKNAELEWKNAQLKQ

4H2931-bA = target: T45, 4H2931-bA; assay: two-hybrid library CCNG1
T45 chain: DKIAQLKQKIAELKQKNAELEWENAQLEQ

4H2760-bA = target: T46, 4H2760-bA; assay: two-hybrid library CCNG1
T46 chain: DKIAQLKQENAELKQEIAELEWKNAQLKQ

4H2859-bA = target: T47, 4H2859-bA; assay: two-hybrid library CCNG1
T47 chain: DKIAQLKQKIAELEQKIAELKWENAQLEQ

4H626-bA = target: T48, 4H626-bA; assay: two-hybrid library CCNG1
T48 chain: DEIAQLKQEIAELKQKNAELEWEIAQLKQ

4H932-bA = target: T49, 4H932-bA; assay: two-hybrid library CCNG1
T49 chain: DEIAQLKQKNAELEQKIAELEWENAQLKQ

4H2760-bN = target: T50, 4H2760-bN; assay: two-hybrid library CCNG1
T50 chain: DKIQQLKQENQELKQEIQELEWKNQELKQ

4H3381-bA = target: T51, 4H3381-bA; assay: two-hybrid library CCNG1
T51 chain: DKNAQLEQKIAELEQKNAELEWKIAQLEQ

4H349-bA = target: T52, 4H349-bA; assay: two-hybrid library CCNG1
T52 chain: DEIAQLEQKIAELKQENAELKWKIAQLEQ

4H949-bA = target: T53, 4H949-bA; assay: two-hybrid library CCNG1
T53 chain: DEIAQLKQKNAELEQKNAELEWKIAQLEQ

4H796-bA = target: T54, 4H796-bA; assay: two-hybrid library CCNG1
T54 chain: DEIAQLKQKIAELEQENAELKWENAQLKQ

4H730-bA = target: T55, 4H730-bA; assay: two-hybrid library CCNG1
T55 chain: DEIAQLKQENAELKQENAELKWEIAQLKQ

4H3364-bA = target: T56, 4H3364-bA; assay: two-hybrid library CCNG1
T56 chain: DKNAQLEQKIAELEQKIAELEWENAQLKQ

4H3041-bA = target: T57, 4H3041-bA; assay: two-hybrid library CCNG1
T57 chain: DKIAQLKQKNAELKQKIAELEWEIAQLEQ

P7SHb = target: T58, P7SHb; assay: two-hybrid library CCNG1
T58 chain: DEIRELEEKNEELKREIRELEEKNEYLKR

P2-AA-1HAA-R = target: T59, P2-AA-1HAA-R; assay: two-hybrid library CCmax; conditions: mean of both orientations
T59 chain: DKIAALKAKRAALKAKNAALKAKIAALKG

P9SHb = target: T60, P9SHb; assay: two-hybrid library CCNG1
T60 chain: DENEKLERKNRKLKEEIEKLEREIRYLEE

P8SHb = target: T61, P8SHb; assay: two-hybrid library CCNG1
T61 chain: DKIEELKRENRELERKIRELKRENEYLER

B2: 4H2692-bA (peptide)
chain: DKIAQLKQENAELEQEIAELEWENAQLKQ
interaction score (4H2839-bA): -1.15
interaction score (4H3298-bA): 1.59
interaction score (4H3277-bA): -0.458
interaction score (4H2859-bH): -0.0963
interaction score (4H40-bA): -0.113
interaction score (4H492-bA): 2.26
interaction score (4H2692-bA): -0.461
interaction score (4H3057-bA): -0.734
interaction score (O6-bP): 0.95
interaction score (4H319-bN): 0.192
interaction score (4H2717-bA): -0.0486
interaction score (4H741-bA): -0.251
interaction score (4H2915-bA): 0.654
interaction score (4H319-bA): -0.498
interaction score (4H477-bA): -1.06
interaction score (4H348-bA): -1.58

B4: P1-AA-1HAA-V (peptide)
chain: DEIAALEAEVAALEAENAALEAEIAALEG
interaction score (P2-AA-1HAA-D): 1.95
interaction score (P2-AA-1HAA-V): 2.01
interaction score (P2-AA-1HAA-T): 2.16
interaction score (P2-AA-1HAA-I): 2.11
interaction score (P2-AA): 2.01
interaction score (P2-AA-1HAA-E): 1.98

B6: 4H56-bA (peptide)
chain: DEIAQLEQEIAELEQKNAELEWKNAQLKQ
interaction score (4H56-bA): -0.593
interaction score (P7SHb): 0.584
interaction score (4H932-bA): -0.898
interaction score (4H949-bA): -0.628
interaction score (4H796-bA): -0.775
interaction score (4H730-bA): -1.15

B7: P1-AA-1HAA-Y (peptide)
chain: DEIAALEAEYAALEAENAALEAEIAALEG
interaction score (P2-AA-1HAA-D): 0.371
interaction score (P2-AA-1HAA-V): 1.99
interaction score (P2-AA-1HAA-T): 1.95
interaction score (P2-AA-1HAA-I): 2.07
interaction score (P2-AA-1HAA-R): 1.52
interaction score (P2-AA): 2.07
interaction score (P2-AA-1HAA-E): 0.866

Further lines, results first:

interaction score (4H570-bN): -0.602
interaction score (4H906-bN): -1.5
interaction score (4H619-bN): 0.271
interaction score (4H850-bN): -0.789
interaction score (4H3631-bN): 1.27
interaction score (4H3638-bN): -0.362
interaction score (4H3414-bN): 0.0803
interaction score (4H3172-bN): -0.109
interaction score (4H584-bN): -0.681
interaction score (4H3974-bN): -0.234
interaction score (4H3817-bN): -0.519
B1: 4H3172-bN (peptide)
chain: DKNQQLEQEIQELKQKIQELEWENQELKQ

interaction score (4H3298-bN): -2.82
interaction score (4H3628-bN): -0.916
interaction score (4H906-bN): -0.217
interaction score (4H3613-bN): -1.42
interaction score (4H3462-bN): -0.0887
interaction score (4H626-bN): -1.27
interaction score (4H3926-bN): -1.32
interaction score (4H3497-bN): -1.06
interaction score (4H591-bN): -0.882
B3: 4H3298-bN (peptide)
chain: DKNQQLEQENQELKQKIQELEWEIQELKQ

interaction score (4H3297-bA): 1.18
interaction score (4H967-bN): -2.38
interaction score (4H56-bA): -1.54
interaction score (4H2931-bA): -0.0923
interaction score (4H2760-bA): 0.895
interaction score (4H2859-bA): 0.0768
interaction score (4H626-bA): -2.94
interaction score (4H932-bA): 0.295
interaction score (4H2760-bN): -1.33
interaction score (4H3381-bA): -0.726
interaction score (4H349-bA): -0.95
interaction score (4H949-bA): -1.14
interaction score (4H796-bA): -0.576
interaction score (4H730-bA): -0.287
interaction score (4H3364-bA): 0.448
interaction score (4H3041-bA): 0.518
B5: 4H2760-bA (peptide)
chain: DKIAQLKQENAELKQEIAELEWKNAQLKQ

interaction score (P9SHb): 0.021
interaction score (P7SHb): -0.618
interaction score (P8SHb): 1.18
B8: P7SHb (peptide)
chain: DEIRELEEKNEELKREIRELEEKNEYLKR
